Data reported in the supplement of paper PMC9732359.
± gives the uncertainty stated by the source.

Assay: protein stability index of a GFP-peptide fusion (yeast GPS) (PSI 1-4); higher = more stable; sorted into four equal gates, so the index is relative within each strain
Details: doa10∆
Procedure, shortened: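 The protein stability index of a peptide was calculated by multiplying its read frequency in each gate by that gate's number and adding the products. The peptides were tiled 17-residue stretches of yeast proteins, fused downstream of GFP on a Cherry-expressing plasmid and carried in yeast as a pooled library. Mid-log cultures in leucine-free medium were sorted into four equal gates by GFP/Cherry ratio, and each gate's plasmids were PCR-amplified and Illumina-sequenced.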
TFTIKEFVSYYYAHSIP [SNU114] showed a protein stability index of 1.88 ± 0.039. In the case of TGAYIANRVTDKLTRVH [PRE3], the protein stability index is reported as 1.57 ± 0.068. Sequence TGISQKSMSILNSFVND [HTB1] has a protein stability index of 2.96 ± 0.06. In the case of TGSNDRCIGDSDNVSFE [YMR129W/POM152], the protein stability index is reported as 3.19 ± 0.066. Work on THDGRTIRYPDPNIKVN [RPS4A] yielded a protein stability index of 1.52 ± 0.13. THTEQNNPPKPQKPVPL [SNF2] showed a protein stability index of 2.88 ± 0.08. THTNLERDEQKRAEKKA [SNF2] gave a protein stability index of 3.35 ± 0.099. Work on TIANSIILHFANFGEIL [YMR153W/NUP53] yielded a protein stability index of 2.15 ± 0.055. TIDEQSQISPEKQTPNK [RPN1] gave a protein stability index of 3.24 ± 0.17. Sequence TIEKDKMKIQETISKLN [SMC2] has a protein stability index of 1.71 ± 0.058. TIERSLIEEEVEQDEGQ [YCS4] showed a protein stability index of 3.36 ± 0.24. Sequence TIKDLVGGKSTVQNEIL [FAS2] has a protein stability index of 3.03 ± 0.073. TISKESTPDQRKRVYNI [ESC2] gave a protein stability index of 2.92 ± 0.15. TITIKSYHLWPSFTDEQ [PRP8] showed a protein stability index of 2.32 ± 0.057. TIVGVKFNNGVVIAADT [PUP1] gave a protein stability index of 1.43 ± 0.072. TKAVEFSMGHIRSSSVS [MED4] showed a protein stability index of 3.26 ± 0.12. In the case of TKEMDEVEEDDEDDDQP [SWI3], the protein stability index is reported as 3.39 ± 0.12. TKFNHNKEKSNSPTSFF [YOR098C/NUP1] showed a protein stability index of 2.78 ± 0.069. For TKFSNPAIPPVIDLEKI [BRR2], the protein stability index was 2.57 ± 0.068. In the case of TKIDMPIKNRKNDTHYL [BRN1], the protein stability index is reported as 3.04 ± 0.07. Sequence TKIKDAEEDSLLSGEDL [YJL039C/NUP192] has a protein stability index of 3.35 ± 0.16. TKKKSKFMTNSTAFVPT [ARP9] showed a protein stability index of 2.65 ± 0.054. With TKLDQVWGSETVASSKV [RPL4A] the protein stability index was 2.72 ± 0.075. With TKLGFTFTIKEFVSYYY [SNU114] the protein stability index was 1.88 ± 0.054. Sequence TKLIGVLILLHAERDLA [SRP68] has a protein stability index of 1.28 ± 0.078. In the case of TKPFENVEKYPTFVEFI [SNU114], the protein stability index is reported as 2.7 ± 0.23. With TKQIQSVRIDGRKVLQK [SIR4] the protein stability index was 2.32 ± 0.06. TKRQKHFAWLPTHIWNA [POP1] gave a protein stability index of 2.03 ± 0.031. For TKRVEKPQLKFKSPIDN [RRP6], the protein stability index was 2.88 ± 0.052. With TKVLNMKPSEILSLIEE [SMC2] the protein stability index was 2.86 ± 0.23. Work on TKVNNQLIKVAVHNGGR [RPL9A] yielded a protein stability index of 1.92 ± 0.074. Work on TLDDLVTKWTNQLTESA [YJL041W/NSP1] yielded a protein stability index of 2.76 ± 0.1. Sequence TLILIQNPENLLSEKIL [SIR3] has a protein stability index of 2.98 ± 0.062. Sequence TLKIHLKKFLQEKMDPN [IRR1] has a protein stability index of 2.86 ± 0.1. Work on TLKKNNVAVDIINFGEI [RPN10] yielded a protein stability index of 2.97 ± 0.081. Work on TLLKNLRKKLNFKLCQA [YJR042W/NUP85] yielded a protein stability index of 2.01 ± 0.12. For TLLPGLQDEVMNIKPVQ [RPS2], the protein stability index was 1.21 ± 0.14. For TLLRLNELLDLTESQTE [RPN5], the protein stability index was 2.39 ± 0.089. TLLWNKNDKLIKIEDFV [SNF5] gave a protein stability index of 1.8 ± 0.081. Sequence TLPEKKQFDSIFNSNKA [SIR4] has a protein stability index of 2.71 ± 0.042. In the case of TLRCSVVEACGNIVAEL [YCS4], the protein stability index is reported as 1.87 ± 0.095. Work on TLSNGLIASHYGVSFFT [BRR2] yielded a protein stability index of 2.74 ± 0.055. For TLSTHSTTTSVNGSTTA [SIN4], the protein stability index was 2.79 ± 0.043. TLVAQNLKQANNVAYGK [SMC4] gave a protein stability index of 2.8 ± 0.1. Sequence TMLELLNQLDGFETSKN [RPT6] has a protein stability index of 2.92 ± 0.13. Sequence TNAGYTIELAGGGYFSA [FAS1] has a protein stability index of 2.39 ± 0.078. TNDGIERYSDKYLKKRK [RPC31] showed a protein stability index of 3.23 ± 0.13. TNENGETDDNIETVMTQ [SRB4] showed a protein stability index of 2.79 ± 0.099. For TNFNEITNTDETITTKR [SWP82], the protein stability index was 3.13 ± 0.058. For TNIRRIIQDNISPRLVV [RRP46], the protein stability index was 1.58 ± 0.037. With TNLYKLKEERAIEPETF [PUP3] the protein stability index was 3.16 ± 0.12. TNPKLKSEFDDLSLNIH [YMR129W/POM152] showed a protein stability index of 2.96 ± 0.071.
